This is an account of results in paper PMC9359109.

By stoichiometry N is commonly meant a count of units in the complex or per binding partner.

Test [1] deals with HLA-B*27:05 class I heavy chain (HC), V5 tagged (human). Nature of the test: non-reducing two-dimensional isoelectric focusing gel electrophoresis and immunoblot; 1% NP40 lysates resolved by charge in the first dimension and by non-reducing SDS-PAGE in the second, immunoblot with anti-V5; monomers and dimers compared by pI.
For test [2] the target is unchanged. Nature of the test: non-reducing two-dimensional isoelectric focusing gel electrophoresis and immunoblot of immunoprecipitates; anti-tapasin immunoprecipitates resolved by charge and then by non-reducing SDS-PAGE, immunoblot with anti-V5. (In general: In western blotting, separated proteins are transferred to a membrane and probed.)
For test [3], the target named is HLA-B*27:05 single chain trimer (SCT): NP 383-391 peptide - linker - human beta-2 microglobulin - linker - HLA-B*27:05 heavy chain - V5 (influenza virus | human). Nature of the test: non-reducing two-dimensional isoelectric focusing gel electrophoresis and immunoblot; 1% NP40 lysates resolved by charge in the first dimension and by non-reducing SDS-PAGE in the second, immunoblot with anti-V5; monomers and dimers compared by pI.

Test [4] has the same target. Nature of the test: non-reducing two-dimensional isoelectric focusing gel electrophoresis and immunoblot of immunoprecipitates; anti-tapasin immunoprecipitates resolved by charge and then by non-reducing SDS-PAGE, immunoblot with anti-V5.

Consider “HLA-B*27:05 class I heavy chain (HC), V5 tagged (natural protein)”, for which the stoichiometry N in test [1] and in test [2] was 2 throughout.

For the substance “HLA-B*27:05 single chain trimer (SCT): NP 383-391 peptide - linker - human beta-2 microglobulin - linker - HLA-B*27:05 heavy chain - V5 (from UniProt P61769 21-119) (peptide-MHC)”, the stoichiometry N in test [3] and in test [4] was 2 in each case.
